Measured values taken from paper doi:10.1101/2020.08.24.264606 (bioRxiv, 2020).

Biological target: CIP2A(1-560)-V5 (human, UniProt Q8TCG1-1 1-560)
Assay: pull-down

B1: GST-NOCIVA (CIP2A 1-545 + 13 aa peptide) (natural protein)
chain: not shown
binding result: binds
